Measurements published in PMC2668526 (Bioorganic & medicinal chemistry, 2008).

Columns and labels:
Test in all cases: purified protein, by the assay type
Settings in all cases: other: O2 consumption, 5.0 mM ascorbate, pH 6.0, 37 °C
[1] = substrate: O=C(O)CNC(=O)c1ccc(Cl)cc1
[2] = substrate: O=C(O)CNC(=O)c1ccccc1
[3] = substrate: CC(C)(C)OC(=O)NCC(=O)O
[4] = substrate: Cc1ccc(C(=O)NCC(=O)O)cc1
[5] = substrate: CC(Cc1ccccc1)C(=O)NCC(=O)O
[6] = substrate: C[C@@H](NC(=O)OCc1ccccc1)C(=O)O
[7] = substrate: CCCc1ccc(C(=O)NCC(=O)O)cc1
[8] = substrate: O=C(O)CNC(=O)CCCc1ccccc1
[9] = substrate: CC(C)CCC(=O)NCC(=O)O
[10] = substrate: Nc1ccc(C(=O)NCC(=O)O)cc1
[11] = substrate: O=C(O)CNC(=O)CNC(=O)CNC(=O)c1ccccc1
[12] = substrate: O=C(O)CNC(=O)c1ccccc1I
[13] = substrate: CCc1ccc(C(=O)NCC(=O)O)cc1
[14] = substrate: Cc1cccc(C(=O)NCC(=O)O)c1
[15] = substrate: O=C(O)CNC(=O)CCCCCc1ccccc1
[16] = substrate: O=C(O)CNC(=O)CNC(=O)c1ccccc1
[17] = substrate: O=C(O)CNC(=O)c1ccc(Br)cc1
[18] = substrate: O=C(O)CNC(=O)CSc1ccccc1
[19] = substrate: O=C(O)CNC(=O)c1ccc(O)cc1
[20] = substrate: O=C(O)CNC(=O)OCc1ccccc1

B1: rat PAM (Rattus norvegicus) (protein)
chain: FKETTRSFSNECLGTIGPVTPLDASDFALDIRMPGVTPKESDTYFCMSMRLPVDEEAFVIDFKPRASMDTVHHMLLFGCNMPSSTGSYWFCDEGTCTDKANILYAWARNAPPTRLPKGVGFRVGGETGSKYFVLQVHYGDISAFRDNHKDCSGVSVHLTRVPQPLIAGMYLMMSVDTVIPPGEKVVNADISCQYKMYPMHVFAYRVHTHHLGKVVSGYRVRNGQWTLIGRQNPQLPQAFYPVEHPVDVTFGDILAARCVFTGEGRTEATHIGGTSSDEMCNLYIMYYMEAKYALSFMTCTKNVAPDMFRTIPAEANIPIPVKPDMVMMHGHHKEAENKEKSALMQQPKQGEEEVLEQDFHVEEELDWPGVYLLPGQVSGVALDSKNNLVIFHRGDHVWDGNSFDSKFVYQQRGLGPIEEDTILVIDPNNAEILQSSGKNLFYLPHGLSIDTDGNYWVTDVALHQVFKLDPHSKEGPLLILGRSMQPGSDQNHFCQPTDVAVEPSTGAVFVSDGYCNSRIVQFSPSGKFVTQWGEESSGSSPRPGQFSVPHSLALVPHLDQLCVADRENGRIQCFKTDTKEFVREIKHASFGRNVFAISYIPGFLFAVNGKPYFGDQEPVQGFVMNFSSGEIIDVFKPVRKHFDMPHDIVASEDGTVYIGDAHTNTVWKFTLTEKMEHRSV
B1 was tested, and the Km [1] was 0.62 ± 0.04 mM, the kcat [1] was 4.1 ± 0.1 s⁻¹ and the kcat/Km [1] was 6600 ± 200 M⁻¹ s⁻¹. The Km [2] was 1.3 ± 0.04 mM, the kcat [2] was 8.2 ± 0.08 s⁻¹ and the kcat/Km [2] was 6200 ± 100 M⁻¹ s⁻¹. The Km [3] was 3.7 ± 0.2 mM, the kcat [3] was 6.3 ± 0.3 s⁻¹ and the kcat/Km [3] was 1700 ± 50 M⁻¹ s⁻¹. For the same protein, the Km [4] was 1.8 ± 0.2 mM, the kcat [4] was 5.7 ± 0.3 s⁻¹ and the kcat/Km [4] was 3200 ± 200 M⁻¹ s⁻¹. For the same protein, the Km [5] was 4.1 ± 0.3 mM, the kcat [5] was 18 ± 0.9 s⁻¹ and the kcat/Km [5] was 4300 ± 100 M⁻¹ s⁻¹. For the same protein, the Km [6] was 35 ± 5.0 mM, the kcat [6] was 1.4 ± 0.1 s⁻¹ and the kcat/Km [6] was 41 ± 5 M⁻¹ s⁻¹. The Km [7] was 1.2 ± 0.2 mM, the kcat [7] was 5.1 ± 0.4 s⁻¹ and the kcat/Km [7] was 4200 ± 600 M⁻¹ s⁻¹. For the same protein, the Km [8] was 0.16 ± 0.02 mM, the kcat [8] was 11 ± 0.4 s⁻¹ and the kcat/Km [8] was 70000 ± 7000 M⁻¹ s⁻¹. It also gave a Km [9] of 0.28 ± 0.03 mM, a kcat [9] of 6.6 ± 0.3 s⁻¹ and a kcat/Km [9] of 23000 ± 2000 M⁻¹ s⁻¹. The Km [10] was 2.6 ± 0.2 mM, the kcat [10] was 5.6 ± 0.2 s⁻¹ and the kcat/Km [10] was 2200 ± 100 M⁻¹ s⁻¹. The Km [11] was 0.31 ± 0.06 mM, the kcat [11] was 8.8 ± 1.3 s⁻¹ and the kcat/Km [11] was 29000 ± 2000 M⁻¹ s⁻¹. For the same protein, the Km [12] was 3.4 ± 0.4 mM, the kcat [12] was 3.1 ± 0.1 s⁻¹ and the kcat/Km [12] was 910 ± 70 M⁻¹ s⁻¹. The Km [13] was 1.2 ± 0.2 mM, the kcat [13] was 3.6 ± 0.3 s⁻¹ and the kcat/Km [13] was 3100 ± 500 M⁻¹ s⁻¹. The Km [14] was 1.4 ± 0.1 mM, the kcat [14] was 6.4 ± 0.2 s⁻¹ and the kcat/Km [14] was 4700 ± 200 M⁻¹ s⁻¹. The Km [15] was 0.051 ± 0.007 0.043 ± 0.005 mM, the kcat [15] was 11 ± 0.4 s⁻¹ and the kcat/Km [15] was 200000 ± 20000 M⁻¹ s⁻¹. For the same protein, the Km [16] was 0.078 ± 0.011 mM, the kcat [16] was 12 ± 0.8 s⁻¹ and the kcat/Km [16] was 160000 ± 10000 M⁻¹ s⁻¹. It also gave a Km [17] of 0.52 ± 0.06 mM, a kcat/Km [17] of 4900 ± 400 M⁻¹ s⁻¹ and a Km [18] of 0.19 ± 0.02 mM. The kcat [18] was 4.6 ± 0.2 s⁻¹, the kcat/Km [18] was 25000 ± 1000 M⁻¹ s⁻¹ and the Km [19] was 1.7 ± 0.1 mM. It also gave a kcat [19] of 5.8 ± 0.1 s⁻¹, a kcat/Km [19] of 3500 ± 200 M⁻¹ s⁻¹ and a Km [20] of 0.59 ± 0.02 mM.
